The target of assay [1] is recombinant human FGFR2/Fc chimera (Sino Biological 10824-H03H) (human, UniProt P21802 22-377). The experiment in a line: SPR. On the technique in general: Surface plasmon resonance follows binding to a sensor surface in real time, without labels.
The target of assay [2] is T1, recombinant human FGFR1/Fc chimera (Sino Biological 10616-H03H) (human, UniProt P11362 22-376).
T1 chain: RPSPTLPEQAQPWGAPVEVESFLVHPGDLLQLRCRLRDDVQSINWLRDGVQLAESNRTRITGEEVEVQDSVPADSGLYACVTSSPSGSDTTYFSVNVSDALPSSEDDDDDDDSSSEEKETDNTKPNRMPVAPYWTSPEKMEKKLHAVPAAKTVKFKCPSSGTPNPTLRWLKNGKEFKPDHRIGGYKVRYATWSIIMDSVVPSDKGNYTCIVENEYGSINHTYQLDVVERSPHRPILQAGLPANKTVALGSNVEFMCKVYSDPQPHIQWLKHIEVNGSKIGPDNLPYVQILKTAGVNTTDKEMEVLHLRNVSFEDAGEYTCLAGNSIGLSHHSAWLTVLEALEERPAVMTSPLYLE
Description: SPR.

Sequence of recombinant human FGFR2/Fc chimera (Sino Biological 10824-H03H) (P21802 22-377): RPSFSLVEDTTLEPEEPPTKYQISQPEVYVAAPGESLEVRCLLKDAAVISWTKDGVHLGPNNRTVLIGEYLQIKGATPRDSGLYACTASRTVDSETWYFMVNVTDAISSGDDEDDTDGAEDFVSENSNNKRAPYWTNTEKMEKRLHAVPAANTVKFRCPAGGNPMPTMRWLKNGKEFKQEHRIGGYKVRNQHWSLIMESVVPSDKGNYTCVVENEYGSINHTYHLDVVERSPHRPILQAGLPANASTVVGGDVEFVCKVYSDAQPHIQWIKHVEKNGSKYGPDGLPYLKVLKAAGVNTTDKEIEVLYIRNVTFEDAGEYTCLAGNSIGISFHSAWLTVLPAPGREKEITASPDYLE

B1: recombinant FGF8a (R&D Systems 4745-F8-050) (ligand)
chain: QHVREQSLVTDQLSRRLIRTYQLYSRTSGKHVQVLANKRINAMAEDGDPFAKLIVETDTFGSRVRVRGAETGLYICMNKKGKLIAKSNGKGKDCVFTEIVLENNYTALQNAKYEGWYMAFTRKGRPRKGSKTRQHQREVHFMKRLPRGHHTTEQSLRFEFLNYPPFTRSLRGSQRTWAPEPR
In the case of B1, the Kd in assay [1] came to 31.5 nM; in assay [2] it was 39.2 nM.

B2: recombinant FGF4 (Peprotech AF-100-31) (ligand)
chain: APTAPNGTLEAELERRWESLVALSLARLPVAAQPKEAAVQSGAGDYLLGIKRLRRLYCNVGIGFHLQALPDGRIGGAHADTRDSLLELSPVERGVVSIFGVASRFFVAMSSKGKLYGSPFFTDECTFKEILLPNNYNAYESYKYPGMFIALSKNGKTKKGNRVSPTMKVTHFLPRL
B2: the dissociation constant Kd in assay [1] came to 6.94 nM; in assay [2], 3.61 nM.

The term Kd denotes the concentration at which binding is half-saturated.

The values are drawn from article PMC5467231 (2017).
